Values quoted from earlier work in article PMC2855346.

Target: CCR2 (Homo sapiens) (UniProt P41597)
Sequence of UniProt P41597 (P41597 whole entry): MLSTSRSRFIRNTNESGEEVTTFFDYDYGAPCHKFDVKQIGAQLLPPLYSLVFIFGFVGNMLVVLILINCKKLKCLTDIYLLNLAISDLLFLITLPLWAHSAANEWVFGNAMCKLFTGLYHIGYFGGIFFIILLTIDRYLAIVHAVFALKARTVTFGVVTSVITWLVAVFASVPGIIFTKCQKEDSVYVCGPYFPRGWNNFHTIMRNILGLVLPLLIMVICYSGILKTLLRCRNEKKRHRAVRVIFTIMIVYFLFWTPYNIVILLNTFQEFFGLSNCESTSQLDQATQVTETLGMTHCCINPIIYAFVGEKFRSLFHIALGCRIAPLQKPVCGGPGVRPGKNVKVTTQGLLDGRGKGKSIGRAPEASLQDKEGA

Q: Which Kd does the source give for CCL2 (from UniProt P13500) here?
A: The Kd was 2.5 nM.
